Data published in paper PMC12775136 (2025).

Target: T1, 3′hExofl (human, UniProt Q8IV48 1-349)
T1 chain: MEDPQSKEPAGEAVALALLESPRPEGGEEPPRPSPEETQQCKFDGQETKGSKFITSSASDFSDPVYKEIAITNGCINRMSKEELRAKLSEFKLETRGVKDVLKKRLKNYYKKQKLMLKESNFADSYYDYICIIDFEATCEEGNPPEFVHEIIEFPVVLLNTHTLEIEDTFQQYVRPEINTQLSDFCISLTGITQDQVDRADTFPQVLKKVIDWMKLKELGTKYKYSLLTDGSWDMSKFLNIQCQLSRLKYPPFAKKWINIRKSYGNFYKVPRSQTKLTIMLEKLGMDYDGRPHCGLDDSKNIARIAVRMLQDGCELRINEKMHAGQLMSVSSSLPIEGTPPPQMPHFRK
Experiment: NMR

Kd: 200 µM
B1: UPF2-AL (domain or fragment)
chain: NDKDSKDSMTEGENLEEDEEEEEGGAETEEQSGNESEVNEPEEEEGSDNDDDEGEEEEEENTDYLTDSNKENETDEENTEVMIKGGGLKH
